The values below come from FireProtDB.

Several values for one entry are separate records, joined by “and”; a condition that tells them apart may be missing. Equal entries are not always repeated.

[1] abbreviates: Homo sapiens, pH 7.4, Thermal, CD, phosphate 10 mM, NaCl 10 mM, transition: 2, structure 2NLU.
Where [2] appears, read: Homo sapiens, pH 7.5, Thermal, DSF, Hepes 25mM, NaCl 150mM, structure 6DLO.
Where [3] appears, read: Homo sapiens, pH 7.5, Thermal, CD, HEPES 0.8mM, NaCl 6mM, transition: 2, structure 6EW2.
The mark [4] stands for this setting: Cyprinus carpio, pH 7.5, Thermal, CD, Sodium phosphate 10 mM, CaCl2 0.00001 M.
The mark [5] stands for this setting: Escherichia coli (strain K12), pH 7, 30 °C, Urea, CD, Potassium phosphate 10 mM.
Where [6] appears, read: Escherichia coli (strain K12), pH 7.5, Thermal, CD, Potassium phosphate 10 mM, reversible: yes, structure 1EZA.
Where [7] appears, read: Escherichia coli (strain K12), pH 7.5, Thermal, DSC, Potassium phosphate 10 mM, reversible: yes, structure 1EZA.
Where [8] appears, read: Bos taurus, pH 8, Thermal, DSC, Tris-HCl 10 mM, NaCl 200 mM, reversible: yes.

Chain of Parvalbumin beta wild type, P02618 (P02618 whole entry): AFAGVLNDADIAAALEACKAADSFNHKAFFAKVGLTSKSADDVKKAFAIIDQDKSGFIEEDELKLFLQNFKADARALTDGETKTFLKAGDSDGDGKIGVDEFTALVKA
Chain of Superoxide dismutase [Cu-Zn] wild type, P00442 (P00442 whole entry): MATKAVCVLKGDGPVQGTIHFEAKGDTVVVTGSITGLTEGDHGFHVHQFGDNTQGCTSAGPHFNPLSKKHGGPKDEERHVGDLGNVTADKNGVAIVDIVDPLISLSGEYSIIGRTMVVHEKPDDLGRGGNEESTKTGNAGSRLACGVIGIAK
Chain of Tropomyosin alpha-1 chain wild type, P04268 (P04268 whole entry): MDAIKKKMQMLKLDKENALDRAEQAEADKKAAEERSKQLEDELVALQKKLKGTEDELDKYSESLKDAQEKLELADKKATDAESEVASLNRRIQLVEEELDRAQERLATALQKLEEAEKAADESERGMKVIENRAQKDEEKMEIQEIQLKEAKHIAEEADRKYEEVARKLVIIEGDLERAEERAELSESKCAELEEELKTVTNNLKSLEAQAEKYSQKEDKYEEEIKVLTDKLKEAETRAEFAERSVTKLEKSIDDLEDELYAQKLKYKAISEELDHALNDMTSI
Chain of Hepatoma-derived growth factor P24A, P51858 (P51858 whole entry P24A): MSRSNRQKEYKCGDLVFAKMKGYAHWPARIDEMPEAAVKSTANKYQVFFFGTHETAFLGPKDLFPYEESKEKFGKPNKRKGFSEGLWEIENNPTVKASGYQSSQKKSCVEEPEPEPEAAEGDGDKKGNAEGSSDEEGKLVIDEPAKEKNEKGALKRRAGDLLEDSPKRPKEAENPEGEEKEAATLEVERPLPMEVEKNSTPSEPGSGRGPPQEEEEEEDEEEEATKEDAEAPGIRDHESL
Chain of Hepatoma-derived growth factor wild type, P51858 (P51858 whole entry): as the sequence (P51858 whole entry P24A) above, with A24P counted along it

Consider “Hepatoma-derived growth factor P24A, P51858”, for which, under setting [1], the Tm is 40 °C and the “change of melting temperature, mutant - wild type (higher = more stable)” value (shortened to “change of melting temperature, mutant”) is -7 °C.

With “Hepatoma-derived growth factor wild type, P51858”, the Tm (Homo sapiens, pH 7.4, Thermal, CD, phosphate 10 mM, NaCl 10 mM, transition: 2) is 47 °C.

With “Leucine-rich repeat serine/threonine-protein kinase 2, Q5S007 G2385R”, under setting [2], the Tm is 31.3 °C and the “change of melting temperature, mutant” value came out at 0.33 °C.

On to “Myelin P2 protein (from UniProt P02689) I52T”, for which, under setting [3], the “change of melting temperature, mutant” value was -13 °C and the “ddG of mutation (higher = less stable)” value amounted to 5.17 kcal/mol.

Consider “Myelin P2 protein (from UniProt P02689) T51P”, for which, under setting [3], the “change of melting temperature, mutant” value is -24 °C and the “ddG of mutation (higher = less stable)” value stood at 1.51 kcal/mol.

On to Parvalbumin beta wild type, P02618, for which, under setting [4], the Tm was 90 °C, the “heat capacity change of unfolding” value came to 1.1 kcal/mol/K and the “unfolding enthalpy (calorimetric)” value was 120 kcal/mol. The Tm (Cyprinus carpio, pH 7.5, Thermal, CD, Sodium phosphate 10 mM, EDTA 5 mM) was 32 °C. Also, the Tm (Cyprinus carpio, pH 7.5, Thermal, CD, Sodium phosphate 10 mM, NaCl 2 M) amounted to 55 °C.

As to “Phosphocarrier protein HPr wild type, P0AA04”, under setting [5], the denaturant m value turned out to be 1.06 kcal/mol/M and the “denaturant midpoint (higher = more stable)” value was determined as 4.34 M. Further, the unfolding free energy (Escherichia coli (strain K12), pH 7, 30 °C, Urea, CD, Potassium phosphate 50 mM, reversible: yes) came out at 4.95 kcal/mol. In addition, the Tm (Escherichia coli (strain K12), pH 7, Thermal, CD, Potassium phosphate 10 mM) is 30 °C.

Turning to “Phosphoenolpyruvate-protein phosphotransferase H189A, P08839”, under setting [6], the Tm was determined as 54 °C and the “unfolding enthalpy (van 't Hoff)” value was found to be 118 kcal/mol. Under setting [7], the Tm worked out at 55.8 °C and the “unfolding enthalpy (calorimetric)” value amounted to 143 kcal/mol.

Turning to “Phosphoenolpyruvate-protein phosphotransferase H189E, P08839”, under setting [6], the Tm was found to be 52.1 °C and the “unfolding enthalpy (van 't Hoff)” value was 128 kcal/mol. Besides, under setting [7], the Tm worked out at 53.7 °C and the “unfolding enthalpy (calorimetric)” value turned out to be 135 kcal/mol.

Take “QQHADPICNKPCKTHDDCSGAWFCQACWNSARTCGPYVG [Metallocarboxypeptidase inhibitor wild type]”: the “denaturant midpoint (higher = more stable)” value by setting is: (Solanum tuberosum, pH 8.4, 23 °C, GdnHCl, Fluorescence, Tris-HCl 0.1 M, whole UniProt chain shown) 1.45 M; (Solanum tuberosum, pH 8.4, 23 °C, GdnSCN, Fluorescence, Tris-HCl 0.1 M, whole UniProt chain shown) 0.7 M.

On to “Superoxide dismutase [Cu-Zn] wild type, P00442”, for which the Tm (Bos taurus, pH 7.8, Thermal, DSC, Potassium phosphate 100 mM, reversible: no (32%)) is 88.3 °C. Further, under setting [8], the Tm worked out at 59.9 °C and the “unfolding enthalpy (calorimetric)” value stood at 152 kcal/mol.

With “Tropomyosin alpha-1 chain wild type, P04268”, the unfolding free energy (Gallus gallus, pH 7, 39 °C, Thermal, CD, Sodium phosphate 10 mM, NaCl 0.5 M, reversible: yes) is 9 kcal/mol and 12.4 kcal/mol and 9.6 kcal/mol. For the same substance, under “Gallus gallus, pH 7, Thermal, CD, Sodium phosphate 10 mM, NaCl 0.5 M, reversible: yes”, the “unfolding enthalpy (van 't Hoff)” value was 162 kcal/mol and 225 kcal/mol and 98 kcal/mol.
